US10921324B2, “Compositions and methods related to the methylation of histone H1.0 protein” (Aelan Cell Technologies, Inc., priority 2016, dated 2021)
Ends that are not written are not given here.

Molecular target: T1, GLP methyltransferase (Homo sapiens, UniProt Q9H9B1)
T1 construct: purchased Cayman Chemical 10755
T1 sequence (Q9H9B1 1-1298): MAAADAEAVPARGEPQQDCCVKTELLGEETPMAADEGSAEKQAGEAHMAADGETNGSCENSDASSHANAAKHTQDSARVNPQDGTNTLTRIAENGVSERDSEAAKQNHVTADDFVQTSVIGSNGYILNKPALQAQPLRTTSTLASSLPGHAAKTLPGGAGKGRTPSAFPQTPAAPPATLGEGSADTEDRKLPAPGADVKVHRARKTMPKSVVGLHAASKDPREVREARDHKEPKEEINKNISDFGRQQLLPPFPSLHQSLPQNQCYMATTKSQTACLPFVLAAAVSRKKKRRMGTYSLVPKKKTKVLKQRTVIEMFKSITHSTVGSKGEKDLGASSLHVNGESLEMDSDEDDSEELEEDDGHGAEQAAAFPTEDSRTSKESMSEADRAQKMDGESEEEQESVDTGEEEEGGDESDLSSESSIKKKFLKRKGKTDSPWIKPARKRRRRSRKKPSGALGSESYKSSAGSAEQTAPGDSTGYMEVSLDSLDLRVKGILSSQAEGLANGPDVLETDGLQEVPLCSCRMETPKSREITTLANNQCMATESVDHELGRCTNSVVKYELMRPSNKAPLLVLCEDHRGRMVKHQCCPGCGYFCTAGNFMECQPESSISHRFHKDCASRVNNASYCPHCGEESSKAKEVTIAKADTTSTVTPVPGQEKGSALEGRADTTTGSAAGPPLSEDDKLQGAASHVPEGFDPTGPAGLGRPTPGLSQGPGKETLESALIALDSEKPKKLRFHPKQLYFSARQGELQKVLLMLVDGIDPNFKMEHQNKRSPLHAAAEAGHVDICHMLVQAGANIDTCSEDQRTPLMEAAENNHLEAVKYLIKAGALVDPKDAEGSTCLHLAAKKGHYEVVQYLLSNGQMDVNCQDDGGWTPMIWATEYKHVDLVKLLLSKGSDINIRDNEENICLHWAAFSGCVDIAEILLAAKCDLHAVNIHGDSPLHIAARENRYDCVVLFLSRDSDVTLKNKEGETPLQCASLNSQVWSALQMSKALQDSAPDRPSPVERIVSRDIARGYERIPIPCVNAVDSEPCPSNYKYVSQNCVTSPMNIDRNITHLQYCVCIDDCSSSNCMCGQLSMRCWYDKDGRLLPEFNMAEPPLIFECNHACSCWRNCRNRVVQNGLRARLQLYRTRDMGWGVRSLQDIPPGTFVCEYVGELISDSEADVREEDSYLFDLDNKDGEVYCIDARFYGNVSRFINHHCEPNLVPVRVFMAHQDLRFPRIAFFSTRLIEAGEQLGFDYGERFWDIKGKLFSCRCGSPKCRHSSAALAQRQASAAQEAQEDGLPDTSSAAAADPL
Test: In vitro methylation of unmodified H1.0 peptide with GLP, products by LC-MS
Assay type: biochemical
Conditions: LC-MS spectral counts; 10U GLP, 3.2 mM S-Adenosyl-L-Methionine, 37° C. 1 hour
Description: In order to identify the precise sites of methylation by G9A and GLP methyltransferases on histone H1.0, in vitro methylation assays were performed and subsequently analyzed by Liquid Chromatography and High-resolution Mass Spectrometry (LC-MS) analysis. Methylation reactions were set up using either G9A methyltransferase (NEB, M0235S, Lot #0031201) or GLP methyltransferase (Cayman Chemical, 10755). The methyl donor in each reaction was unlabeled S-Adenosyl-L-Methionine (NEB, B9003S). […]
For the Liquid Chromatography and High-resolution Mass Spectrometry (LC-MS) analysis, samples were prepared as described above and about 1 μg o the product was injected onto a Thermo Scientific Easy nLC system configured with a 10 cm×100 um trap column and a 25 cm×100 um ID resolving column. […] This ensured optimal full-scan data for quantification. […]
Protein identification was performed using Thermo Scientific Proteome Discoverer version 1.4 (including Sequest and Percolator algorithms) using RefSeqHuman sequence database. […] Protein quantification was performed using Pinpoint version 1.4 software. The Pinpoint quantification workflow included importing the Proteome Discoverer .msf files as spectral libraries. Identified peptides were subsequently quantified in MS .raw files using the Pinpoint peak finding, chromatographic alignment and area calculation algorithms. […]

H1.0K180 dimethylated, % of all peptides: 96.6%
Sequence: AKPVKASKPKKAKPVKPK (not fully specified (N-terminus); listed as Homo sapiens) [unmethylated H1.0 peptide, unmodified H1.0 peptide substrate for in vitro methylation]
